Reference: publication PMC4817131, “Human DNA polymerase α in binary complex with a DNA:DNA template-primer”

Experiments:
[1] = target: T1, DNA polymerase alpha catalytic core (p180, hPolα) (Homo sapiens, UniProt P09884 338-1259); test: fluorescence anisotropy; 5 mM MgCl2, no dNTP; 50 mM Bis-Tris pH 6.5, 100 mM NaCl, 5 mM MgCl2, 23 °C; 2 nM labeled duplex, 0.1-16000 nM protein, >30 min; conditions: protein: recombinant; tags: N-terminal His6-SUMO (His6-SMT) removed by SUMO protease; label: 5' 6-FAM on template; template 5' overhang 20 nt, one replicative end
[2] = target: T1, DNA polymerase alpha catalytic core …; test: X-ray crystallography (3.3 Å); crystallized with Mg2+ and dCTP; neither bound in active site (binary complex); 50 mM Bis-Tris pH 6.5, 100 mM NaCl, 5 mM MgCl2, 23 °C; 2 nM labeled duplex, 0.1-16000 nM protein, >30 min; conditions: protein: recombinant; tags: N-terminal His6-SUMO (His6-SMT) removed by SUMO protease; template 5' overhang 5 nt, one replicative end

T1 sequence (P09884 338-1259): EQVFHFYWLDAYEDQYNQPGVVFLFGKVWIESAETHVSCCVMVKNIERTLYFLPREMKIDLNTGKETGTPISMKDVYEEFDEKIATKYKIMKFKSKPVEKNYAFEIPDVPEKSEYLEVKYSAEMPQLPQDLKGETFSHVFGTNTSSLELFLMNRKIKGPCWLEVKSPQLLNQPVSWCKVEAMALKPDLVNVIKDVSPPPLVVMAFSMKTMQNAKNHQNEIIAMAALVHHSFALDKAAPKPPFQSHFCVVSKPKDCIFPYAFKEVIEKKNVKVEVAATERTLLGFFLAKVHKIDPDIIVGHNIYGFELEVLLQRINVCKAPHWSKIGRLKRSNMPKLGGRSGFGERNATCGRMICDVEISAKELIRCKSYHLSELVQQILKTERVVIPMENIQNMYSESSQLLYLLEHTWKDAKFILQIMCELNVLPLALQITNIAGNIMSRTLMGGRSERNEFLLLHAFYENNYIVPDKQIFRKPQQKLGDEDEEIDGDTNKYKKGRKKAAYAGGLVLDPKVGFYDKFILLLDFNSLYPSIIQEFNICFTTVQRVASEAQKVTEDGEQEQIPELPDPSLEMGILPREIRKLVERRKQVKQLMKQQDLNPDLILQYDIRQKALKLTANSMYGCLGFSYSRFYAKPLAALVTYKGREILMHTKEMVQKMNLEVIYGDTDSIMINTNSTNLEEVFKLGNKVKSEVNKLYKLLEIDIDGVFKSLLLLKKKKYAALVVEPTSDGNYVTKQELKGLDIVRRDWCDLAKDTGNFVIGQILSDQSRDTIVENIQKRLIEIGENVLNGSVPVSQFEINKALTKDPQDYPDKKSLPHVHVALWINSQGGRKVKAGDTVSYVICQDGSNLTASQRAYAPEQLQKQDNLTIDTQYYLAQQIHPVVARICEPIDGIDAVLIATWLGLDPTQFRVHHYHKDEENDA

Binder	Kd [1] [nM]	binding result [2]
10-nt DNA primer/30-nt DNA template (dsDNA) DNA 1: CTTAGGATGGAGAAAGGTAAGATGAAGCCG DNA 2: CGGCTTCATC	~430	–
13-nt DNA primer/18-nt DNA template (dsDNA, primer 3'-terminal dideoxycytosine) DNA 1: TAATGGTAGGGGAAGGAT DNA 2: ATCCTTCCCCTAC	–	binds
10-nt RNA primer/30-nt DNA template (DNA:RNA) DNA: CTTAGGATGGAGAAAGGTAAGATGAAGCCG RNA: CGGCUUCAUC	~320	–
